# Molecular target: HLA-A*01:01
# Assay: IEDB peptide-MHC binding, purified MHC/competitive/fluorescence; ≥ and ≤ were set here for values at or beyond the usual limits of such assays
# Conditions: source organism: Plasmodium falciparum
row,Sequence,IC50 [µM]
1,ASDQPKQYEQ,≥ 126
2,DSCVPNTNEY,≥ 100
3,DTDSNHTPSN,5.88
4,DVSTLNDEY,52.2
5,ENDYAYLNKY,42.2
6,FLDYYKHLSY,0.646
7,FNDVPIKMEY,0.498
8,FTYDSEEYY,0.136
9,GEEDETHIY,≥ 261
10,HLDFVIIPHY,≥ 118
11,HREHPKEYEY,11.1
12,IPDNDKNSNY,14.7
13,LNDEYIVSY,28.1
14,LSDTLQLHED,≥ 100
15,LTIIYIHLF,≥ 100
16,LTPVATGNQY,2.56
17,NEDYKNVDY,8.92

row,Sequence,IC50 [µM]
1,NKNDDSYRY,6.68
2,NLFEQLSCY,≥ 100
3,NNEDYKNVDY,7.99
4,NSILIKPEKY,≥ 109
5,NSIYHKSSTY,≥ 100
6,NTNGIRYHY,4.38
7,RTFKKMMDEY,≥ 100
8,SECDIGLIY,≥ 100
9,SIEIVERSNY,12.1
10,SIYHKSSTY,≥ 100
11,STCYGNRFNY,54
12,STDPHTNSNN,≥ 100
13,STEEEKDDIK,6.83
14,TLNDEYIVSY,≥ 213
15,TSSLIKQNKY,37.1
16,YIDTIKFIHK,1.51

# Molecular target: HLA-A*02:01
# Assay: as above
# Conditions: source organism: Plasmodium falciparum
row,Sequence,IC50 [µM]
1,AVLATILMV,23.6
2,CLINNSSYI,3.82
3,DMSNEYSLFI,≥ 100
4,FIPSHNSFI,31
5,FISDDKDSL,≥ 336
6,FLPTGAFKA,1.39
7,FLQYHFKEL,14.6
8,FQYNDDASI,0.275
9,FVLENGVCI,4.17
10,HLNNIFHHL,0.225
11,ILDMSNEYSL,6.87
12,KINETYDKV,10.1
13,KLGVQYFFL,0.805
14,KLPLESSTI,2.12
15,KMMDEYNTKK,≥ 511
16,KMYSEFKSI,1.02
17,KRASHTTPV,≥ 100
18,KVKDSWITL,4.01

row,Sequence,IC50 [µM]
1,NIFHHLIYV,2.29
2,NLFSSIEIV,1.55
3,RQMLYNTFYS,≥ 319
4,SLFITSDHL,7.12
5,SLIKQNKYV,29.9
6,SMIKSAFLPT,12.5
7,SVLNGNDNTI,≥ 640
8,VLLLSAFEFT,≥ 100
9,VLNGNDNTI,7.31
10,VQYFFLRPYI,≥ 100
11,YIFFNNENSI,2.83
12,YIHKLILSV,1.15
13,YIYIDTIKFI,53.1
14,YIYNQIIWKI,1.95
15,YLNKYVYTI,0.342
16,YLNTNVNDGL,2.83
17,YMGNPWTEYM,21.4
18,YVGDNINNV,1.82

# Molecular target: HLA-A*03:01
# Assay: as above
# Conditions: source organism: Plasmodium falciparum
row,Sequence,IC50 [µM]
1,ATCKYGFNK,4.75
2,CVCTYNYYKK,14.4
3,DLMNRTFKK,≥ 100
4,FIPSHNSFIK,≥ 100
5,FISDDKDSLK,≥ 697
6,FLDYYKHLSY,≥ 100
7,FVCSNRDFLK,≥ 100
8,GSYIYIDTIK,≥ 70.8
9,HIYVQKKVK,0.897
10,HLSYNSIYHK,44.2
11,HTKIINDKTK,≥ 73
12,ILNNSKFNK,0.42
13,KIFTFIENK,0.467
14,KLKYVTESLK,3.34
15,KLNIWRTFQK,2.5
16,KMMDEYNTKK,8.48
17,KVKSKCNDIK,39.3

row,Sequence,IC50 [µM]
1,LICGVSPYK,0.419
2,LSSYVSLPLK,0.654
3,NSIYHKSSTY,≥ 101
4,NSYKEWISKK,7.37
5,NVNFLQYHFK,≥ 100
6,PVATGNQYLK,≥ 328
7,RLSHTDIHK,1.74
8,RTFKKMMDEY,≥ 100
9,RTFQKDELLK,24.2
10,SAFLPTGAFK,0.345
11,SILPDINKSK,12.7
12,SIYHKSSTY,5.93
13,STCRFFVCK,5.9
14,STCYGNRFNY,≥ 100
15,TLNDEYIVSY,≥ 304
16,VENNFPCSLY,≥ 85.4

# Molecular target: HLA-A*24:02
# Assay: as above
# Conditions: source organism: Plasmodium falciparum
row,Sequence,IC50 [µM]
1,AYLNKYVYTI,0.127
2,AYVSCYRVSF,0.0569
3,DFVIIPHYTF,0.289
4,DMKNYGTNLF,5.3
5,EYKDEYADI,2.1
6,EYPLHQEHTY,0.999
7,GYNWGNYNTE,≥ 100
8,GYSTKAENKI,1.84
9,IFFNNENSI,0.0569
10,IFHHLIYVL,9.59
11,IKLNIWRTF,1.42
12,IYIHLFILN,≥ 142
13,IYKRELYNI,0.0868
14,KLPLESSTI,0.214
15,KYLFIPSHN,6.12
16,LTIIYIHLF,69.5
17,NFGRGQNYW,0.229
18,NYKLGVQYFF,26.3
19,NYMGNPWTE,37.9
20,PFHKKFISFF,0.0356
21,PYISKYGNKL,0.179
22,QYLKDGGFAF,0.0419
23,RYNLYDKKL,0.172
24,SYFTYDSEEY,22.3
25,SYNSIYHKS,57.7
26,SYRYDISEEI,0.363
27,YLNKYVYTI,0.135
28,YYRSSRGECI,0.175

# Molecular target: HLA-B*07:02
# Assay: as above
# Conditions: source organism: Plasmodium falciparum
row,Sequence,IC50 [µM]
1,CPRKNLQNA,0.484
2,FITSDHLRQM,≥ 100
3,FNRIEYHTKI,≥ 100
4,FPCSLYKDEI,≥ 100
5,FVLENGVCI,≥ 284
6,HPYDINNKND,≥ 100
7,IKKKLILTII,44.1
8,IPFHKKFISF,21.9
9,IPHYTFLDYY,≥ 100
10,ITSDHLRQM,≥ 183
11,KPECVCKENL,≥ 206
12,KPEKYGNTTA,≥ 836
13,KPHECVCNKQ,≥ 100
14,KRASHTTPV,≥ 100
15,KSAFLPTGAF,≥ 100
16,KVKDSWITL,0.458
17,LPIKSTEEEK,≥ 100

row,Sequence,IC50 [µM]
1,LPLKIENREY,≥ 100
2,LPSAKNNCEY,≥ 100
3,LQKHGFHTM,≥ 100
4,MDMKNYGTNL,≥ 100
5,MIRIKKKLIL,≥ 100
6,MNRTFKKMM,≥ 100
7,MPKAVIGSSP,≥ 293
8,NPEDRNSNTL,2.7
9,NPQQSVGENG,≥ 100
10,RASHTTPVL,0.258
11,RPNDCESVL,0.377
12,RPYISKNDL,0.244
13,SPLNLQENEM,22.4
14,SPNDNINVT,36.1
15,TIIYIHLFIL,13.7
16,TPGPLDNTSE,≥ 100

# Molecular target: HLA-B*44:02
# Assay: as above
# Conditions: source organism: Plasmodium falciparum
row,Sequence,IC50 [µM]
1,DEYIHKLIL,≥ 100
2,EEKDDIKNG,≥ 100
3,EELQITQWI,19.6
4,EENYRCTQDI,≥ 674
5,FEWHTLSKEY,19.1
6,GEEKRASHTT,10
7,IEIVERSNY,8.03
8,KDLSDMTNI,≥ 100
9,KEIDNDKENI,≥ 100
10,KEKFYKNNLY,≥ 919
11,KEKHLNNIF,≥ 100
12,KEMKHIFNRI,39.2
13,KEYNNSEITI,11
14,LEFVCSNRDF,7.46
15,NDNNFAECY,≥ 100
16,NDVPIKMEYF,≥ 100
17,NEIDKLTFSL,≥ 332
18,NEKNDVKNN,≥ 100
19,NENNENNFL,≥ 100
20,NEYSLFITS,≥ 100
21,SECDIGLIY,≥ 100
22,VENNFPCSLY,6.02
23,VQYFFLRPYI,≥ 100
24,YENKSLTHYL,≥ 112

# From the Immune Epitope Database (IEDB)
